# Test results as given in the supplement of paper PMC9732359.
# ± gives the uncertainty stated by the source.
# Assay: protein stability index of a GFP-peptide fusion (yeast GPS) (PSI 1-4); higher = more stable; sorted into four equal gates, so the index is relative within each strain
# Summary of the method: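 For each peptide, the protein stability index sums the read frequency in every gate after multiplying it by the gate number. Read frequencies came from plasmids that were PCR-amplified from each gate and Illumina-sequenced, with reads assigned to strains by barcodes. The gates were four equal bins of GFP/Cherry fluorescence ratio applied to mid-log yeast in leucine-free medium carrying a pooled library of tiled 17-residue yeast protein peptides fused downstream of GFP on a Cherry-expressing plasmid.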
Sequence,protein stability index (doa10∆),protein stability index (pdr5∆),protein stability index (san1∆),protein stability index (ubr1∆)
MVSHKTARGKAALERLK [RPL16B],2.92 ± 0.21,2.74 ± 0.15,2.47 ± 0.21,2.21 ± 0.16
IVAQSEVEVSTRDLFDL [RPO31],3.07 ± 0.074,3.34 ± 0.083,3.3 ± 0.059,3.2 ± 0.067
TSSRGRDHKSYSQSPPR [SMC4],2.65 ± 0.046,2.81 ± 0.056,2.59 ± 0.088,2.83 ± 0.038
PSPKKVAIDQDKITLHD [SIR4],2.36 ± 0.064,2.53 ± 0.064,2.27 ± 0.079,2.88 ± 0.05
LKSKVIDSPELLSLIST [RPN7],2.48 ± 0.038,2.63 ± 0.045,2.4 ± 0.049,2.61 ± 0.041
AFEELEGSWDRGIPRIS [PRP8],2.88 ± 0.18,3.36 ± 0.19,3.36 ± 0.22,3.3 ± 0.24
LEPFLLMLEDTDGDSIL [BRR2],2.71 ± 0.071,3.06 ± 0.089,3.05 ± 0.073,3.1 ± 0.05
AQGLLHLGKGTMTMDVF [RPN1],2.47 ± 0.065,2.61 ± 0.066,2.15 ± 0.081,1.89 ± 0.058
PEKKEMIQEVIVEEDLE [FAS2],3.14 ± 0.077,3.31 ± 0.089,3.35 ± 0.045,3.36 ± 0.062
AIACYSGYNQEDSMIMN [RPB2],2.65 ± 0.084,1.75 ± 0.072,2.67 ± 0.098,2.39 ± 0.12
FLSPYISTHLKTICNLL [IRR1],1.57 ± 0.05,1.76 ± 0.065,1.69 ± 0.1,1.29 ± 0.038
PEMIKRSLLLSRVRADD [RRP43],2.87 ± 0.2,3.63 ± 0.17,,2.92 ± 0.16
SLRRIRDEMSKAELPQW [MED8],1.98 ± 0.071,2.36 ± 0.055,2.33 ± 0.072,1.92 ± 0.04
TKQRLDAYYDLELRNSV [PRP8],2.64 ± 0.046,2.93 ± 0.039,2.86 ± 0.039,2.74 ± 0.035
DTNAPVAATITSSQKEP [SRB8],2.35 ± 0.14,2.79 ± 0.13,3.04 ± 0.086,2.96 ± 0.11
VKIGDIEKWTANLLPAR [RPS22A],2.19 ± 0.076,2.65 ± 0.095,2.56 ± 0.076,3.17 ± 0.087
YKAQADTFYMNVESVGS [RPB3],2.75 ± 0.088,2.34 ± 0.058,2.98 ± 0.068,3.07 ± 0.079
PESQGQHEQQKQQEQLE [YMR153W/NUP53],3.4 ± 0.083,3.37 ± 0.066,3.24 ± 0.06,3.26 ± 0.072
PSKLVITKLHLDKDRKA [RPL26A],1.73 ± 0.18,1.75 ± 0.086,1.75 ± 0.28,1.21 ± 0.099
MCHIVRKFHELNDHIDD [GRR1],2.13 ± 0.053,2.31 ± 0.071,2.18 ± 0.079,1.72 ± 0.04
DQFITSLKCTDPYELKG [ITC1],3.02 ± 0.12,2.66 ± 0.09,2.78 ± 0.088,2.95 ± 0.1

Sequence,protein stability index (doa10∆),protein stability index (pdr5∆),protein stability index (san1∆),protein stability index (ubr1∆)
KEKLIGWYHSGPKLRAS [RPN8],2.16 ± 0.055,2.41 ± 0.045,2.53 ± 0.051,2.63 ± 0.042
ASSSPSSTDFSTCIVSL [ECM29],2.81 ± 0.081,2.26 ± 0.07,2.01 ± 0.1,1.84 ± 0.059
WSFEEVEVKDASLVDYV [RPS5],1.32 ± 0.089,1.14 ± 0.06,1.22 ± 0.14,1.17 ± 0.056
TTDMISVLYQLSTSAFM [YML031W/NDC1],1.42 ± 0.095,1.64 ± 0.14,1.75 ± 0.24,1.14 ± 0.11
YGFEDESAPITAEDSWA [RPB2],3.06 ± 0.058,3.16 ± 0.055,3.35 ± 0.042,3.17 ± 0.053
ARTATVSKKWAAAAVCE [RPL14A],2.9 ± 0.089,3.21 ± 0.084,3.58 ± 0.11,2.71 ± 0.066
TRDEETTKLAFLVEYEG [SIR4],3.02 ± 0.14,3.06 ± 0.095,,2.96 ± 0.13
DSFTMPNISHSNIDYQT [SNF2],2.4 ± 0.088,2.12 ± 0.1,2.49 ± 0.13,2.41 ± 0.072
TSSIFQESFNSVQNLDQ [NUT1],3.16 ± 0.086,2.64 ± 0.057,2.98 ± 0.048,3.14 ± 0.054
DDDDSRKSAPVDSWDRE [SKP1],3.15 ± 0.047,3.21 ± 0.048,3.21 ± 0.048,3.23 ± 0.044
EDVALNEQVKKFFLNNV [NAS6],2.64 ± 0.047,2.5 ± 0.058,2.44 ± 0.051,2.88 ± 0.042
KKMDDYIHRIGRTGRAA [PRP28],3.17 ± 0.1,3.28 ± 0.092,3.27 ± 0.045,3.35 ± 0.07
LTLLERKWVIFITKHLP [NUT1],2.59 ± 0.089,1.68 ± 0.064,1.45 ± 0.13,2.57 ± 0.079
ILSSVNRTVLLKIFKIF [SRB8],1.37 ± 0.083,1.42 ± 0.14,1.17 ± 0.16,1.13 ± 0.093
LQLAPGAHLGRFVIWTE [RPL4A],3.62 ± 0.21,2.98 ± 0.22,3.18 ± 0.099,3.27 ± 0.08
CSKAMGDLASLVLLNGR [RPP1],2.84 ± 0.061,2.9 ± 0.05,2.62 ± 0.058,2.73 ± 0.037
KIQVVDRHIGCVYSGLI [PRE10],1.28 ± 0.12,1.7 ± 0.29,,1.36 ± 0.14
LRGSLLSRKPSDNKKRS [RPC82],2.96 ± 0.13,3.6 ± 0.14,3.27 ± 0.1,3.01 ± 0.13
CLTMFEDRNESVNIAFA [ECM29],2.42 ± 0.13,2.52 ± 0.094,2.81 ± 0.11,2.5 ± 0.073
MKPKAEKESDDGLLEYL [SMC4],3.58 ± 0.17,3.37 ± 0.16,3.31 ± 0.18,
